# Reference: the DeepSol protein solubility set
# Assay: soluble on expression in E. coli; label from the status in PepcDB or PDB records
row,Sequence,soluble on expression in E. coli
1,MKVIEVTHPIQSNQFITENVAMAFGFFDGMHRGHDKVFQVLDEKAKEHQLKKAVMTFDPHPSVVLNPERKRTTYLTPLSDKLEMIAEHGIDYCIVINFSSRFANVTSDDFIKNYIINNHVKEVIAGFDFTFGKFGKGNMTVLQESKAFNTTIVGKQEMDSEKISTTAIRQALTDGHLQKANDELGYIYRIKGTVVQGEKRGRTIGFPTANVQPSDDYVLPKKGVYAVSMEIGPESKLHRGVANVGVKPTFHDPTRAELVIEVNIFDFNENIYGERVTVYWHHFLRPEVKFDGIDPLVKQMNEDKAQAKHLLSIDFDDDISYNI,not soluble
2,MKVLVSPMSVAEAIEAIEGGADIIDVKNPAEGSLGANFPWVIREISELAKKYGKEISATTGDMPYKPGTASLAALGAAVAGADYIKVGLYGVKNAEEAYEMMVGVVRAVKDFDSSKKVVAAGYGDYYRISSVSPLDLPEAVAKAGADIVMVDTAIKDGTSLFDHMKIGDIESFVKLARDNGLMVALAGNISWNHIETLKELSPDIIGVRSIVCEGDRSSMIKRELVVKLMEAVHG,not soluble
3,MKVLVVGSGGREHALLWKAAQSPRVKRLYAAPGNAGMEALAELVPWNGDVEALADWALAEGIDLTLVGPEAPLVEGIADAFQARGLLLFGPTQKAAMIEGSKAFAKGLMERYGIPTARYRVFREPLEALAYLEEVGVPVVVKDSGLAAGKGVTVAFDLHQAKQAVANILNRAEGGEVVVEEYLEGEEATVLALTDGETILPLLPSQDHKRLLDGDQGPMTGGMGAVAPYPMDEATLRRVEEEILGPLVRGLRAEGVVYRGVVYAGLMLTREGPKVLEFNARFGDPEAQALLPLLENDLVELALRVAEGRLAGTRLSWKEGAAACVVLAAPGYPESPRKGIPLHVPEPPEGVLVFHAGTRREGGRLVSAGGRVLNVVGLGRDLKEALERAYAYIPQVGFPGAVYRRDIGRRALARLST,soluble
4,MKVNIDPTAPTFATYRRDMRAEQMAEDYPVVSIDSDALDAARMLAEHRLPGLLVTAGAGKQYAVLPASQVVRFIVPRYVQDDPLLAGVLNESTADRCAERLSGKKVRDVLPDHLVEVPPANADDTIIEVAAVMARLRSPLLAVVKDGSLLGVVTASRLLAAALKT,soluble
5,MKVNNTIVVSIGQAGNQIAASFWKTVCLEHGIDPLTGQTAPGVAPRGNWSSFFSKLGESSSGSYVPRAIMVDLEPSVIDNVKATSGSLFNPANLISRTEGAGGNFAVGYLGAGREVLPEVMSRLDYEIDKCDNVGGIIVLHAIGGGTGSGFGALLIESLKEKYGEIPVLSCAVLPSPQVSSVVTEPYNTVFALNTLRRSADACLIFDNEALFDLAHRKWNIESPTVDDLNLLITEALAGITASMRFSGFLTVEISLRELLTNLVPQPSLHFLMCAFAPLTPPDRSKFEELGIEEMIKSLFDNGSVFAACSPMEGRFLSTAVLYRGIMEDKPLADAALAAMREKLPLTYWIPTAFKIGYVEQPGISHRKSMVLLANNTEIARVLDRICHNFDKLWQRKAFANWYLNEGMSEEQINVLRASAQELVQSYQVAEESGAKAKVQDSAGDTGMRAAAAGVSDDARGSMSLRDLVDRRR,soluble
6,MKVRNVIIGFMVASLTGCSMGHRDPVEIKQTLDKSINENGGLLLADLPASVQADLMPELNTPHVEVEEPVKRFRVRANGVGAKAFFTSLVKGTEYSVVIHPQVSGRITMNLSDVTMDDVLSSVEDLYGYDIVKAGKVLQVYPATIRTETIPVDYLQLTRKGRSLTTITTGSITNSDNNSSNNNNSSSKSNNNSSSSSSSATGGTEIETTSESDFWKELETAISVMIGNGADRSVVVSPQASVVTITASPDELRKVKQFLGTSHKRLQRQVILEAKLLEVTLSDGYQQGINWSNLTASLGGTDVVFGQTSGLVQGALPGMDTIGTLLGGQTNITVSDGNFQAVLSFMDTQGDLNVLSSPRVTAANNQKAVIKVGRDEYYVTEVSSVTGSGDNSNASPEVTLTPFFSGISLDVTPQIDDKGNVMLHVHPSVIDVENEVKEIDLGDVGGVLKLPLAKSSIRESDSVIRAKSGDVVVIGGLMKSQTVDQVSKVPLLGDVPALGHLFRNVSQLTQKTELVILLKPTVVGVDTWQEELERSRDLLQEWFPDELEHHHHHH,soluble
7,MKVVVIGGGWSGVAAAIEAKKMGADVVLFEKTDLLLGLGNVGGIMRNNGRYTASEELIAMGGGDLINITDKVSRHKDIPFPGHEHAWLYDVNLVEGEVKRYVESLGIETKMVSRIIDIKQEDNKILGVYTSDGQYYNGDVFIETTGSTGPMGNCLRYGNGCSMCILRCPSFGPRISISSRCGVEDIQGERVGDELGAFSGSCKLAKETLSEEIRKELEEKGCVVLKIPKEDVNYDKLNTKVCQQYALKEFAENVVLLDTGHAKLMTTYYPLEKLRKIKGLENAKYVDPYAGGKGNSIRYLSVAPRDDNMKVKGVTNLFCAGEKSGLFVGHTEAIVTGTLAGHNAVRHALGIPYLILPRATVLGDIIAFANEESQSREGKKNRYTFAGSVYFNRMKELGLYTIDKDEIQKRVAQLNLDGVFSKKLMLEHHHHHH,not soluble
8,MKYDTSELCDIYQEDVNVVEPLFSNFGGRASFGGQIITVKCFEDNGLLYDLLEQNGRGRVLVVDGGGSVRRALVDAELARLAVQNEWEGLVIYGAVRQVDDLEELDIGIQAMAAIPVGAAGEGIGESDVRVNFGGVTFFSGDHLYADNTGIILSEDPLDIE,soluble
9,MKYSKEYDEKTVVKINDVKFGEGFTIIAGPCSIESREQIMKVAEFLAEVGIKVLRGGAFKPRTSPYSFQGYGEKALRWMREAADEYGLVTVTEVMDTRHVELVAKYSDILQIGARNSQNFELLKEVGKVENPVLLKRGMGNTIQELLYSAEYIMAQGNENVILCERGIRTFETATRFTLDISAVPVVKELSHLPIIVDPSHPAGRRSLVIPLAKAAYAIGADGIMVEVHPEPEKALSDSQQQLTFDDFLQLLKELEALGWKG,soluble
10,MKYTITVMSGKGGVGKSTVAVNLAVSLARKGLKVGLIDADINGPDDPKLLGVSDLKLYADEEGIIPAETRYGVRVVSMGFLIPTEDTPIIWRGSLMHKAIQQFLEDVNWKDTDVVVLDMPPGTGDVALSVAQLIPESNGVVIVVTPQDVALLDAKKAINFAKQLKLPVLGIIENMSGFVCPHCGNVTYIFKNGGGEKSAKEYNLPFLGKIPLIPEIAENGDNGIPAVVINDKIREIFDSITDQILKEAQIENIKQLEHHHHHH,not soluble
11,MLAAGMSRRMGFNKLLAPLCGKRVLWHVLELVARFEGVLEGAVVVTSGEVADVLRRERPPGRRGLFRVVVNREQWRGLSHSIRLGVEASPGARAYLFFNGDRPFVSKHTVARVLALYMARRPLIAAPMAGGAIAPPVVVDSRLRGELLRLSGDTGVRSLFGKYRDSLAVVEVDDPGLHLDVDTPEDLERASKMCSQLGGGPREKPLEHHHHHH,not soluble
12,MLAAWLGCVLPAGAGLPVETLRVPPGFRVELLTEAMPSAREMALSPAGILYVGSRTGKVYALPLQVPGATVRVVASGLEQPVGVAWRDGSLYVSAVSRVVRLDRIDSRLDDPPVPVVVSDRFPTETHHGWKFIAFGPDGKLYVPVGAPCNVCHRDEDRYANLMRMNADGSSLEVVARGIRNTVGFDWHPVTHELWFTDNGADMMGDDVPDDELNRITAPGQHFGYPFCHAGDVPDPEFGAGHPCSRYVPPVGKLGAHVAALGMRFYTGSNFPQAYRHNLFIAEHGSWNRSSKVGYRVVRVVLDAAGKVVRQEPFVEGWLRGERAWGRPVDVLVAPDGSLLVSDDYAGAVYRVRYTGKLEHHHHHH,soluble
13,MLAKIIMKNFKSFKNETVIDFTRINYKFLENNVSNNGVLKGVAFYGANASGKSNVLWAIRFLLDELFGEEKNPVTFMKCLFSDEPEFSLQYFFVIESREIHYLIDFHTEKGIINEELYLDRKLLLQRMGSTAKSGITEKKVYTDLNNKVLFLRTVYFNTGFSGDDKDNNANNNILRQWFDYMQNSIYVNPFLHRGIAYGKQDVVLNKYLENEGVKEINRFFTKYNFEYTLDYLNERKVKDVTEIVNDDNIKLVFFNRKGVNVPIPYVLESHGNQNLLNILPCFLRVVQNSGMLLVDEFSGGLHNELERLLVNYFFLEHHHHHH,not soluble
14,MLAVHRPSSAVSDGDSVQIPMMIASFQKRFPSLSRDSTAARFHTHEVGPNQCCSAVIQEISAPISTVWSVVRRFDNPQAYKHFLKSCSVIGGDGDNVGSLRQVHVVSGLPAASSTERLDILDDERHVISFSVVGGDHRLSNYRSVTTLHPSPISGTVVVESYVVDVPPGNTKEETCDFVDVIVRCNLQSLAKIAENTAAESKKKMSL,not soluble
15,MLCAKNKKDPKPPPASFSETSKVQNVQNTQPKPAAPSQMSIDESHSKNQKLPSAEKSVEECKKPVSPEKKKSPIKVLSEKKLKSKKKEEDKEPDEKVEKDVKKEVKADNNEPLVKNLKIAKKEQEEENPKTDLESHKDEAEAKKKESRRQKKMRNKNSKEGSVEKMEKSEKAY,not soluble
16,MLDFAAIDFETANAERTSVCSVGIIVVRGGQIVHRYYSLIRPEPDYYNYHNTRVHGLTAADTESARIFPDVWAEVEPLIAGLPLVAHNKPFDEGCLKAVFRMYRMDYPDYPFFCTLQAARRQLRHLSDHRLPTVAQCCGYTLAQHHQALADAEACAAIALKLL,not soluble
17,MLDLFADEAPWQEPLAPGAVVLRRFAFRAAQSLLDDIGFVASQSPFRQMVTPGGYTMSVAMTNCGALGWTTDRHGYCYAVRDPLTDKPWPALPLSFASVCRQAAIAAGYASFQPDACLINRYAPGAKLSLHQDKDEPDLRAPIVSVSLGVPAVFQFGGLRRSDPIQRILLEHGDIVVWGGESRLFYHGIQPLKAGFHPMTGEFRYNLTFRQAAEKELEHHHHHH,soluble
18,MLDLIQTRRDLHQIPEIGLEEFKTQAYLLDVIEKLTTGKDFVQIRTWRTGILVYLQGSQPERTIGWRTDIDGLPIVEQTGLPFASQHQGRMHACVHDFHMTIALGCLERALEEQPKNNLLFLFQPAEENEAGGMLMYEDGAFGDWLPDQFYGLHVRPDLKVGQIATNTHTLFAGTCEVKIRFKGKGGHAAFPHEANDALVAASYFVTQVQSVVSRNVNPIEGAVVTFGVFQAGTTNNVITDTAFLHGTIRALTQDMSLLVQKRVKTVAEGVAAAFDMEVEVELKQGGYLPVENNPALARELMDFFDEKDGIELIDIEPAMTGEDFGYLLSKVDGVMFWLGIDSPYALHHPQMSPKEEVLAIGVAAVSSFLKKKAAE,soluble
19,MLDPELIGNPEDILEKPALKILGKEVEVYDLSNPFGYGVPLWPYFNDVIIDRYHYHAKSRVLSQIITTTMHVSTHADAPIHVEEGFPSIDEVPIERYMGEGVVVSIPKKKWEVITAEDLEKADPPIEKGDIVIVNTGWHRYWSDSVKYFCYAPGFYKEAGEWFVKKKVKAVGIDTQALDHPLATREAWHHPGADERNSILPWLKEEYKQLTGRDVSEDFPYWEPCHRLLLTHGIMGWENVGGDIDKVTGQRCTIIGLPIRWVKGDGSIVRLVALVEKR,soluble
20,MLEALRKCPTMFAVTSDGSSTMAKMDNSARQLALFVATTNGEFYQSNFGEEALETIKYQLGKDAGWGLFFDVLRNAFNGNCVSILARSEDTAHILCGKEDCSEKSALCFPIQKTEEDTSATILKCLVDANAVYANPKEEKNKVQKIMEELEKAKLQVRMLEEEVRVLCENNIWRRKQDTKNTLKIGKLRDNISRLSNQINPKAKEVSETSVGETSGPHAEDSYIPGRKLLRLVFEKKECKEYDVELLRLIKSRWPKTEGSKACNASNCLIDPYTESELPERLSRMSKKHKMVWGTLNGLDDWDYNVFELQAAIDGDDINCKNDQSGCGALFITMYALVVKYGFLRKFEINERIFLNWLSAVEGGYHANPYHNSMHAADVLHITHYLLSKGGLAELCKLNDRQVLAALFAAAIHDYNHPGINNNFSILTQTYNATLYNDRSVLENMHVASVFELMRNPALNILACFSEEHWRDFRNTVIDMVLATDMSLHEKYMTQFKRRLSEKRPFTEDCDQNLALAMALKLADISNCCRPLPLYLKWSERVSDEFYTQGDRERSLGMSCSPFMDRQTPMIAEGQTSFINYIFIPFLEVMAEFLPSMGFTLGLAAVCKSHRLVGNTGQGT,not soluble
